Results as given in paper PMC10397247.

Experiments:
Assay in all cases: two-hybrid library CCNG1;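 note: natural log of median RNA to DNA barcode read ratio; higher means stronger binding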
[1] = biological target: T1, P3A
T1 chain: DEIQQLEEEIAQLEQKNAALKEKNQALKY

[2] = biological target: T2, P7A
T2 chain: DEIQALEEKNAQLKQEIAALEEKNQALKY

[3] = biological target: T3, P5A
T3 chain: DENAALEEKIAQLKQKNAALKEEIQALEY

[4] = biological target: T4, P8A
T4 chain: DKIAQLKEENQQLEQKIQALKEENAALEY

[5] = biological target: T5, P4A
T5 chain: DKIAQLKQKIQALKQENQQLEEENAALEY

[6] = biological target: T6, P2A
T6 chain: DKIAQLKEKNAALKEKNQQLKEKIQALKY

[7] = biological target: T7, P6A
T7 chain: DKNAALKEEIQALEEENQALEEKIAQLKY

[8] = biological target: T8, P9A
T8 chain: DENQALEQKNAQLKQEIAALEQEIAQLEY

[9] = biological target: T9, P4mS
T9 chain: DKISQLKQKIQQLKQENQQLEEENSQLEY

[10] = biological target: T10, 4H607-bN
T10 chain: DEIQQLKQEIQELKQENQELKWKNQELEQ

[11] = biological target: T11, 4H953-bN
T11 chain: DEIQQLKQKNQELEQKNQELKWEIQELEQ

[12] = biological target: T12, 4H883-bN
T12 chain: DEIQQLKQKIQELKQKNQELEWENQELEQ

[13] = biological target: T13, 4H3782-bN
T13 chain: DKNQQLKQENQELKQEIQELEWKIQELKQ

[14] = biological target: T14, 4H754-bN
T14 chain: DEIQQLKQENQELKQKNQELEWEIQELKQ

[15] = biological target: T15, 4H3855-bN
T15 chain: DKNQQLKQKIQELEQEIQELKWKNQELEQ

[16] = biological target: T16, 4H717-bN
T16 chain: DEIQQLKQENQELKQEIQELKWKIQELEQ

[17] = biological target: T17, 4H967-bN
T17 chain: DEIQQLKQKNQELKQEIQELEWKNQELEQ

[18] = biological target: T18, 4H568-bN
T18 chain: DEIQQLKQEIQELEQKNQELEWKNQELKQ

[19] = biological target: T19, 4H3354-bN
T19 chain: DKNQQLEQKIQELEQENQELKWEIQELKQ

[20] = biological target: T20, P9SHb
T20 chain: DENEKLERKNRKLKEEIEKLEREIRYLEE

[21] = biological target: T21, 4H3427-bN
T21 chain: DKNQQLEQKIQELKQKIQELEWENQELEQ

[22] = biological target: T22, 4H72-bN
T22 chain: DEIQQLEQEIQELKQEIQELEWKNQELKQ

[23] = biological target: T23, 4H4001-bN
T23 chain: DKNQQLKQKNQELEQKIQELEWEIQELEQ

[24] = biological target: T24, 4H918-bN
T24 chain: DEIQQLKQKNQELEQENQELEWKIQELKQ

[25] = biological target: T25, 4H338-bN
T25 chain: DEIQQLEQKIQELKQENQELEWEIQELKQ

[26] = biological target: T26, 4H687-bN
T26 chain: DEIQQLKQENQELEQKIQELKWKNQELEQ

[27] = biological target: T27, 4H908-bN
T27 chain: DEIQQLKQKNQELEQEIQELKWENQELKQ

[28] = biological target: T28, 4H331-bN
T28 chain: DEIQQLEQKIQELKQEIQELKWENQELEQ

[29] = biological target: T29, 4H454-bN
T29 chain: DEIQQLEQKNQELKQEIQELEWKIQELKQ

[30] = biological target: T30, 4H3185-bN
T30 chain: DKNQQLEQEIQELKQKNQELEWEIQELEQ

[31] = biological target: T31, 4H797-bN
T31 chain: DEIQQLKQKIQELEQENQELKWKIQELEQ

[32] = biological target: T32, 4H2697-bH
T32 chain: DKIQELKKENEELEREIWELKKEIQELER

[33] = biological target: T33, 4H3462-bN
T33 chain: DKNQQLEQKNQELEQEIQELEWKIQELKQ

[34] = biological target: T34, 4H3162-bN
T34 chain: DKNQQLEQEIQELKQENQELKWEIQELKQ

[35] = biological target: T35, 4H3175-bN
T35 chain: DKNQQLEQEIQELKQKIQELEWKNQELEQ

[36] = biological target: T36, 4H1710-bN
T36 chain: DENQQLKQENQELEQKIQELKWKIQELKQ

[37] = biological target: T37, 4H3858-bN
T37 chain: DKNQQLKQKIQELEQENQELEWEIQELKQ

[38] = biological target: T38, 4H338-bH
T38 chain: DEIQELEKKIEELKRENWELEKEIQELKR

[39] = biological target: T39, 4H1449-bN
T39 chain: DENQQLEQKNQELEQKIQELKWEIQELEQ

[40] = biological target: T40, 4H3628-bN
T40 chain: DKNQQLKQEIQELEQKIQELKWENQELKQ

[41] = biological target: T41, 4H591-bN
T41 chain: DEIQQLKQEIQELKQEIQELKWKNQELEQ

[42] = biological target: T42, 4H850-bN
T42 chain: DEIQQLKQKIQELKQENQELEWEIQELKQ

[43] = biological target: T43, 4H3277-bN
T43 chain: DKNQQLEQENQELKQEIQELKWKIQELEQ

[44] = biological target: T44, 4H906-bN
T44 chain: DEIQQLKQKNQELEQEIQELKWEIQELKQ

[45] = biological target: T45, 4H1544-bN
T45 chain: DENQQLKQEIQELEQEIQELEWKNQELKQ

[46] = biological target: T46, 4H3926-bN
T46 chain: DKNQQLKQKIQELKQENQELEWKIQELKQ

[47] = biological target: T47, 4H3613-bN
T47 chain: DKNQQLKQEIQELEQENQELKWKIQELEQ

[48] = biological target: T48, 4H1985-bN
T48 chain: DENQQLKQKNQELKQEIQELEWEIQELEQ

[49] = biological target: T49, 4H1373-bN
T49 chain: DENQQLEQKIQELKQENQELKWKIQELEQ

[50] = biological target: T50, 4H3974-bN
T50 chain: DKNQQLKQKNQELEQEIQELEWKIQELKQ

[51] = biological target: T51, 4H1899-bN
T51 chain: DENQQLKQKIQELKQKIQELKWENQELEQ

[52] = biological target: T52, 4H3817-bN
T52 chain: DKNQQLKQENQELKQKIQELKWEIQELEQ

[53] = biological target: T53, 4H3298-bN
T53 chain: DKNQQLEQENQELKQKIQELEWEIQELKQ

[54] = biological target: T54, 4H3497-bN
T54 chain: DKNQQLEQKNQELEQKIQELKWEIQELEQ

[55] = biological target: T55, 4H626-bN
T55 chain: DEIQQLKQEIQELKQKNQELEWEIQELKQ

[56] = biological target: T56, 4H570-bN
T56 chain: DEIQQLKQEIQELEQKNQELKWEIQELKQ

[57] = biological target: T57, 4H477-bH
T57 chain: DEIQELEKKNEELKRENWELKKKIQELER

[58] = biological target: T58, 4H3057-bH
T58 chain: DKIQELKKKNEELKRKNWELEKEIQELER

[59] = biological target: T59, 4H2717-bH
T59 chain: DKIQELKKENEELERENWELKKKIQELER

[60] = biological target: T60, 4H2503-bH
T60 chain: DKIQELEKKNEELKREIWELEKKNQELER

[61] = biological target: T61, 4H40-bH
T61 chain: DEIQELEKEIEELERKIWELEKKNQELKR

[62] = biological target: T62, 4H319-bH
T62 chain: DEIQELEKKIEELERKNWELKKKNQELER

[63] = biological target: T63, 4H741-bH
T63 chain: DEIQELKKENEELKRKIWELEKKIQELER

[64] = biological target: T64, 4H348-bH
T64 chain: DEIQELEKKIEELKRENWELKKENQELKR

[65] = biological target: T65, 4H2692-bH
T65 chain: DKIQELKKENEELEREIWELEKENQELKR

[66] = biological target: T66, 4H2438-bH
T66 chain: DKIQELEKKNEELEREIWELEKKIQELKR

[67] = biological target: T67, 4H2839-bH
T67 chain: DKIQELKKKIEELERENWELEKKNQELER

[68] = biological target: T68, 4H2588-bH
T68 chain: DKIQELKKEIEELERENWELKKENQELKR

[69] = biological target: T69, 4H3277-bH
T69 chain: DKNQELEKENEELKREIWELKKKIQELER

[70] = biological target: T70, 4H2223-bH
T70 chain: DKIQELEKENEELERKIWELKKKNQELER

[71] = biological target: T71, 4H2473-bH
T71 chain: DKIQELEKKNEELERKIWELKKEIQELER

[72] = biological target: T72, 4H2915-bH
T72 chain: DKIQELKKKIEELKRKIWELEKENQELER

[73] = biological target: T73, 4H492-bH
T73 chain: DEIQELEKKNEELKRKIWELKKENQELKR

B1: P2A (peptide)
chain: DKIAQLKEKNAALKEKNQQLKEKIQALKY
- interaction score [1]: -1.21
- interaction score [2]: -2.38
- interaction score [3]: -1.27
- interaction score [4]: -0.85
- interaction score [5]: -1.63
- interaction score [6]: -1.07
- interaction score [7]: -0.59
- interaction score [8]: -0.481

B2: 4H3185-bN (peptide)
chain: DKNQQLEQEIQELKQKNQELEWEIQELEQ
- interaction score [9]: -0.366
- interaction score [10]: -0.581
- interaction score [11]: -1.45
- interaction score [12]: -1.12
- interaction score [13]: -0.997
- interaction score [14]: -0.979
- interaction score [15]: -1.23
- interaction score [16]: -0.903
- interaction score [17]: -2.19
- interaction score [18]: -2.82
- interaction score [19]: -0.593
- interaction score [20]: -0.815
- interaction score [21]: -0.99
- interaction score [22]: -2.24
- interaction score [23]: -1.46
- interaction score [24]: -1.19
- interaction score [25]: -1.14
- interaction score [26]: -2.77
- interaction score [27]: -0.952
- interaction score [28]: -2.02
- interaction score [29]: -2.08
- interaction score [30]: -1.05
- interaction score [31]: -0.638

B3: 4H1373-bN (peptide)
chain: DENQQLEQKIQELKQENQELKWKIQELEQ
- interaction score [32]: -2.86
- interaction score [33]: -0.946
- interaction score [34]: -0.675
- interaction score [35]: -0.941
- interaction score [36]: -0.292
- interaction score [37]: 0.337
- interaction score [38]: -0.758
- interaction score [39]: -0.869
- interaction score [40]: -0.846
- interaction score [41]: -0.619
- interaction score [42]: -0.952
- interaction score [43]: -1.18
- interaction score [44]: -1.37
- interaction score [45]: -0.522
- interaction score [46]: 1.21
- interaction score [47]: 1.13
- interaction score [48]: -1.63
- interaction score [22]: -2.48
- interaction score [49]: -0.169
- interaction score [50]: -0.592
- interaction score [51]: -1.32
- interaction score [52]: -0.749
- interaction score [53]: -0.763
- interaction score [54]: -1.41
- interaction score [55]: -0.375
- interaction score [56]: -1.29

B4: 4H2223-bH (peptide)
chain: DKIQELEKENEELERKIWELKKKNQELER
- interaction score [57]: -0.907
- interaction score [58]: 0.455
- interaction score [59]: 0.113
- interaction score [60]: 1.19
- interaction score [61]: -1.6
- interaction score [62]: -0.374
- interaction score [63]: 0.0741
- interaction score [64]: -1.35
- interaction score [65]: 0.736
- interaction score [66]: -0.678
- interaction score [67]: 0.582
- interaction score [68]: 0.461
- interaction score [69]: 0.0226
- interaction score [70]: -0.882
- interaction score [71]: 0.446
- interaction score [72]: 0.816
- interaction score [73]: -0.847
